# Measured values published in the RNAGym collection of RNA variant scans (doi:10.7554/elife.80360).
# B1: HDV Ribozyme (parent)
# chain: GGCCGGCAUGGUCCCAGCCUCCUCGCUGGCGCCGGCUGGGCAACAUUCCGAGGGGACCGUCCCCUCGGUAAUGGCGAAUGGGACCCA
# Variants of: B1
# Test: self-cleavage, relative activity (ratio to wild type); higher = more cleavage; co-transcriptional
row,Variant,self-cleavage
1,GGCCGGCAUGGUCCCAGCCUCCUCGCGGGCGCCGGCUGGGCAACAUUCCGAGGGGACCGACCCCUCGGUAAUGGCGAAUGGGACCCA [U27G U60A],0.914
2,GGCCGGCAUGGUCCCAGCCUCCUCGCGGGCGCCGGCUGGGCAACAUUCCGAGGGGACCGCCCCCUCGGUAAUGGCGAAUGGGACCCA [U27G U60C],0.804
3,GGCCGGCAUGGUCCCAGCCUCCUCGCGGGCGCCGGCUGGGCAACACUCCGAGGGGACCGUCCCCUCGGUAAUGGCGAAUGGGACCCA [U27G U46C],0.997
4,GGCCGGCAUGGUCCCAGCCUCCUCGCGGGCGCCGGCUGGGCAACAAUCCGAGGGGACCGUCCCCUCGGUAAUGGCGAAUGGGACCCA [U27G U46A],0.332
5,GGCCGGCAUGGUCCCAGCCUCCUCGCUAGCGCCGGCUGGGCAACAUUCCGAGGGGACCGUCCCCUCGGUGAUGGCGAAUGGGACCCA [G28A A70G],0.032
6,GGCCGGCAUGGUCCCAGCCUCCUCGCGGGCGCCGGCUGGGCAACAUGCCGAGGGGACCGUCCCCUCGGUAAUGGCGAAUGGGACCCA [U27G U47G],1.27
7,GGCCGGCAUGGUCCCAGCCUCCUCGCGGGCGCCGGCUGGGCAACAUACCGAGGGGACCGUCCCCUCGGUAAUGGCGAAUGGGACCCA [U27G U47A],0.697
8,GGCCGGCAUGGUCCCAGCCUCCUCGCUAGCGCCGGCUGGGCAACUUUCCGAGGGGACCGUCCCCUCGGUAAUGGCGAAUGGGACCCA [G28A A45U],0.128
9,GGCCGGCAUGGUCCCAGCCUCCUCGCGAGCGCCGGCUGGGCAACAUUCCGAGGGGACCGUCCCCUCGGUAAUGGCGAAUGGGACCCA [U27G G28A],0.499
10,GGCCGGCAUGGUCCCAGCCUCCUCGCGCGCGCCGGCUGGGCAACAUUCCGAGGGGACCGUCCCCUCGGUAAUGGCGAAUGGGACCCA [U27G G28C],0.554
11,GGCCGGCAUGGUCCCAGCCUCCUCGCGUGCGCCGGCUGGGCAACAUUCCGAGGGGACCGUCCCCUCGGUAAUGGCGAAUGGGACCCA [U27G G28U],0.612
12,GGCCGGCAUGGUCCCAGCCUCCUCGCGGGCGCCGGCUGGGCAACAUUCCGAGGGUACCGUCCCCUCGGUAAUGGCGAAUGGGACCCA [U27G G55U],1
13,GGCCGGCAUGGUCCCAGCCUCCUCGCUAGCGCCGGCUGGGCAACAUUCCGAGGGGACCGUCCCCUCGGUACUGGCGAAUGGGACCCA [G28A A71C],0.162
14,GGCCGGCAUGGUCCCAGCCUCCUCGCUAGCGCCGGCUGGGCAACAUUCCGAGGGGACCGUCCCCUCGGUAUUGGCGAAUGGGACCCA [G28A A71U],0.0292
15,GGCCGGCAUGGUCCCAGCCUCCUCGCUAGCGCCGGCUGGGCAACAUUCCGAGGGGGCCGUCCCCUCGGUAAUGGCGAAUGGGACCCA [G28A A56G],0.135
16,GGCCGGCAUGGUCCCAGCCUCCUCGCGGGCGCCGGCUGGGCAACAUUCCGAGGGGACCGUCCCCUCAGUAAUGGCGAAUGGGACCCA [U27G G67A],1.1

row,Variant,self-cleavage
1,GGCCGGCAUGGUCCCAGCCUCCUCGCGGGCGCCGGCUGGGCAACAUUCCGAGGGGACCGUCCCCUCGGUAAUGGCGAAUGCGACCCA [U27G G81C],0.277
2,GGCCGGCAUGGUCCCAGCCUCCUCGCUAGCGCCGGCUGGGCAACAUUCCGAGGGGACCGUCCCCUCGGUAAUGGCGAGUGGGACCCA [G28A A78G],0.185
3,GGCCGGCAUGGUCCCAGCCUCCUCGCUAGCGCCGGCUGGGCAACAUUCCGAGGGGACCGUCCCCUCGGUAAUGGCGACUGGGACCCA [G28A A78C],0.0378
4,GGCCGGCAUGGUCCCAGCCUCCUCGCUAGCGCCGGCUGGGCAACAUUCCGAGGGGACCGUCCCCUCGGUAAUGGCGAUUGGGACCCA [G28A A78U],0.0308
5,GGCCGGCAUGGUCCCAGCCUCCUCGCGGGCGCCGGCUGGGCAACAUUCCGAGGGGACCGUCCCCUCGGUAAUGGCGAAUGGGACCAA [U27G C86A],0.767
6,GGCCGGCAUGGUCCCAGCCUCCUCGCGGGCGCCGGCUGGGCAACAUUCCGAGGGGACCGUCCCCUCGGUAAUGGCGAAUGGGACCUA [U27G C86U],1.15
7,GGCCGGCAUGGUCCCAGCCUCCUCGCGGGCGCCGGCUGGGCAACAUUCCGAGGGGACCGUCCCCUCGGUAAUGGCGAAUGGGACACA [U27G C85A],0.831
8,GGCCGGCAUGGUCCCAGCCUCCUCGCGGGCGCCGGCUGGGCAACAUUCCGAGGGGACCGUCCCCUCGGUAAUGGCGAAUGGGACUCA [U27G C85U],0.807
9,GGCCGGCAUGGUCCCAGCCUCCUCGCGGGCGCCGGCUGGGCAACAUUCCGAGGGGACCGUCCCCUCGGUAAUGGCGAAUGGGACGCA [U27G C85G],1.29
10,GGCCGGCAUGGUCCCAGCCUCCUCGCUAGCGCCGGCUGGGCAACAUUCCGGGGGGACCGUCCCCUCGGUAAUGGCGAAUGGGACCCA [G28A A51G],0.0326
11,GGCCGGCAUGGUCCCAGCCUCCUCGCUAGCGCCGGCUGGGCAACAUUCCGCGGGGACCGUCCCCUCGGUAAUGGCGAAUGGGACCCA [G28A A51C],0
12,GGCCGGCAUGGUCCCAGCCUCCUCGCGGGCGCCGGCUGGGCAACAUUCCGACGGGACCGUCCCCUCGGUAAUGGCGAAUGGGACCCA [U27G G52C],1.02
13,GGCCGGCAUGGUCCCAGCCUCCUCGCGGGCGCCGGCUGGUCAACAUUCCGAGGGGACCGUCCCCUCGGUAAUGGCGAAUGGGACCCA [U27G G40U],0.293
14,GGCCGGCAUGGUCCCAGCCUCCUCGCGGGCGCCGGCUGGACAACAUUCCGAGGGGACCGUCCCCUCGGUAAUGGCGAAUGGGACCCA [U27G G40A],0.889
15,GGCCGGCAUGGUCCCAGCCUCCUCGCGGGCGCCGGCUGGCCAACAUUCCGAGGGGACCGUCCCCUCGGUAAUGGCGAAUGGGACCCA [U27G G40C],0.0639
16,GGCCGGCAUGGUCCCAGCCUCCUCGCGGGCGCCGGCUGGGCAACAUUCCGAGGGGACCGUCCCCUCGGUAAUGGCGAAUUGGACCCA [U27G G80U],0.224
